Test results taken from the supplement of paper PMC7125110.
± gives the standard error. For part of these data: Variants at the floor of the assay were thinned out.

B1: glmS ribozyme (parent)
chain: AUAAAAGCGCCAGAACUACAGAAAUGUAGUUGACGAGGAGGAGGUUUAUCGAAUUUUCGGCGGAUGCCUCCAAA

What was measured:
Conditions in all cases: with glucosamine-6-phosphate
glucosamine-6-phosphate [1] = variants of: B1; test: kcat; higher = faster cleavage; RNA array
Method in brief: (§1)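 E. coli RNA polymerase transcribed barcoded ribozyme variants in situ on sequenced MiSeq chips, which were tracked via a hybridised Cy3 probe at 37 °C. Tiles were imaged over ~14 h after glucosamine-6-phosphate (40 μM to 10 mM) in HEPES/KCl/Mg(OAc)2 buffer was flowed in. Normalised per-tile medians were fit to one- or two-exponential decays for kobs, and kcat and KM came from weighted Michaelis–Menten fits.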

glucosamine-6-phosphate [2] = variants of: B1; test: self-cleavage kobs at 40 uM GlcN6P; higher = faster cleavage; RNA array
Method in brief: as §1

glucosamine-6-phosphate [3] = variants of: B1; test: self-cleavage kobs at 160 uM GlcN6P; higher = faster cleavage; RNA array
Method in brief: as §1

glucosamine-6-phosphate [4] = variants of: B1; test: self-cleavage kobs at 640 uM GlcN6P; higher = faster cleavage; RNA array
Method in brief: as §1

glucosamine-6-phosphate [5] = variants of: B1; test: self-cleavage kobs at 2500 uM GlcN6P; higher = faster cleavage; RNA array
Method in brief: as §1

glucosamine-6-phosphate [6] = variants of: B1; test: self-cleavage kobs at 10000 uM GlcN6P; higher = faster cleavage; RNA array
Method in brief: as §1

glucosamine-6-phosphate [7] = variants of: B1; test: KM; higher = weaker cofactor use; RNA array
Method in brief: as §1

Row | Variant | kcat (glucosamine-6-phosphate [1]) [s⁻¹] | self-cleavage kobs at 40 uM GlcN6P (glucosamine-6-phosphate [2]) [s⁻¹] | self-cleavage kobs at 160 uM GlcN6P (glucosamine-6-phosphate [3]) [s⁻¹] | self-cleavage kobs at 640 uM GlcN6P (glucosamine-6-phosphate [4]) [s⁻¹] | self-cleavage kobs at 2500 uM GlcN6P (glucosamine-6-phosphate [5]) [s⁻¹] | self-cleavage kobs at 10000 uM GlcN6P (glucosamine-6-phosphate [6]) [s⁻¹] | KM (glucosamine-6-phosphate [7]) [mM]
1 | G63A C68G | 1.26e-05 ± 3.4e-06 |  |  |  |  |  | 
2 | U56A C70A | 8.96e-05 ± 1.4e-05 | 3.68e-05 ± 1.1e-05 | 5.73e-05 ± 1.1e-05 | 7.05e-05 ± 1.1e-05 | 0.000153 ± 2.3e-05 | 8.51e-05 ± 9.4e-06 | 
3 | U56A C70G | 0.000119 ± 1.4e-05 | 4.01e-05 ± 1e-05 | 8.18e-05 ± 1e-05 | 0.000105 ± 1.1e-05 | 0.000153 ± 1.5e-05 | 0.0001 ± 1.1e-05 | 
4 | U56G C58A | 0.000993 ± 0.00023 |  |  | 7.48e-05 ± 1.1e-05 | 0.000312 ± 3.6e-05 | 0.000556 ± 7.1e-05 | 6.93 ± 2.3
5 | C58U G59U | < 1e-05 | < 1e-05 |  | < 1e-05 |  | < 1e-05 | 
6 | C58G C68U | 4.76e-05 ± 7e-06 |  | 7.05e-05 ± 1.9e-05 | 5.45e-05 ± 1.2e-05 | 4.14e-05 ± 1.3e-05 | 4.34e-05 ± 7.8e-06 | 
7 | U56A U57C | 0.00014 ± 3.4e-06 | < 1e-05 |  |  | 7.84e-05 ± 1.5e-05 | 0.000115 ± 1.5e-05 | 2.03 ± 0.16
8 | U56G C70U | 0.00109 ± 0.00036 | 0.000308 ± 4.6e-05 | 0.000437 ± 7.8e-05 | 0.000908 ± 0.00022 | 0.000943 ± 0.0003 | 0.00182 ± 0.00036 | 
9 | U57C | 0.000311 ± 3.8e-06 |  | 1.34e-05 ± 2.2e-06 | 5.24e-05 ± 1.5e-06 | 0.000136 ± 3.2e-06 | 0.000236 ± 4.4e-06 | 3.18 ± 0.076
10 | U57A | 0.000404 ± 1.3e-05 |  | 2.27e-05 ± 2.2e-06 | 6.91e-05 ± 1.6e-06 | 0.000175 ± 4e-06 | 0.000311 ± 6.3e-06 | 3.12 ± 0.17
11 | U57G | 0.000109 ± 3.4e-06 |  |  | 2.22e-05 ± 1.9e-06 | 4.95e-05 ± 1.4e-06 | 8.52e-05 ± 1.5e-06 | 2.91 ± 0.25
12 | A64U C67G | < 1e-05 | < 1e-05 |  | < 1e-05 |  |  | 
13 | C61A C68A | 1.17e-05 ± 1.8e-06 |  |  |  |  |  | 
14 | A64G C70U | 0.00369 ± 0.001 | 7.77e-05 ± 7.5e-06 | 0.000149 ± 2.2e-05 | 0.000786 ± 7.7e-05 | 0.00162 ± 0.00027 | 0.00298 ± 0.00027 | 2.63 ± 1
15 | U55A G59U | 1.92e-05 ± 2.2e-06 |  |  |  | < 1e-05 |  | 
16 | G59A G63U | < 1e-05 | < 1e-05 |  |  | < 1e-05 |  | 0.294 ± 0.068
17 | U55G G66U | 0.00299 ± 0.00092 | 4.47e-05 ± 1.7e-05 | 8.99e-05 ± 1.6e-05 | 0.00054 ± 0.0001 | 0.00126 ± 0.00021 | 0.00195 ± 0.00034 | 4.24 ± 1.8
18 | G59U G66U | < 1e-05 | < 1e-05 |  |  |  | < 1e-05 | 

Row | Variant | kcat (glucosamine-6-phosphate [1]) [s⁻¹] | self-cleavage kobs at 40 uM GlcN6P (glucosamine-6-phosphate [2]) [s⁻¹] | self-cleavage kobs at 160 uM GlcN6P (glucosamine-6-phosphate [3]) [s⁻¹] | self-cleavage kobs at 640 uM GlcN6P (glucosamine-6-phosphate [4]) [s⁻¹] | self-cleavage kobs at 2500 uM GlcN6P (glucosamine-6-phosphate [5]) [s⁻¹] | self-cleavage kobs at 10000 uM GlcN6P (glucosamine-6-phosphate [6]) [s⁻¹] | KM (glucosamine-6-phosphate [7]) [mM]
19 | G59U G66A | 2.67e-05 ± 2.5e-07 |  |  |  |  |  | 3.11 ± 0.1
20 | U54G U69A | 0.000109 ± 1.4e-05 | 5.13e-05 ± 1.4e-05 |  | 0.000146 ± 3e-05 | 9.9e-05 ± 1.8e-05 | 0.000103 ± 1.9e-05 | 
21 | G62C U69C | < 1e-05 | < 1e-05 |  | < 1e-05 |  |  | 
22 | C58A C71U | 0.00051 ± 0.0001 |  | 4.42e-05 ± 1.2e-05 | 7.43e-05 ± 7.2e-06 | 0.000183 ± 1.6e-05 | 0.000386 ± 3.2e-05 | 3.89 ± 1.2
23 | G60C C70G | 2.59e-05 ± 9.4e-06 | < 1e-05 |  |  |  | < 1e-05 | 
24 | U56C C67A | 4.27e-05 ± 1.5e-06 |  |  |  | 3.57e-05 ± 1.4e-05 | 3.95e-05 ± 7.5e-06 | 0.701 ± 0.18
25 | U56C C67U | 3.78e-05 ± 8.1e-07 | < 1e-05 | < 1e-05 |  |  |  | 7.87 ± 0.36
26 | C58G U69G | 4.22e-05 ± 1.4e-05 |  | 6.03e-05 ± 1.5e-05 | 5.7e-05 ± 1.7e-05 | 5.1e-05 ± 1.6e-05 |  | 
27 | U65A C67A | 9.68e-05 ± 1.3e-05 | 5.89e-05 ± 6.3e-06 | 9.4e-05 ± 8.1e-06 | 8.78e-05 ± 7.6e-06 |  |  | 
28 | C61G G63C | < 1e-05 | < 1e-05 | < 1e-05 |  | < 1e-05 |  | 0.181 ± 0.067
29 | U56G C61A | < 1e-05 |  |  |  |  |  | 
30 | U57C A64G | 0.000236 ± 3.1e-06 |  |  | 3.93e-05 ± 7.8e-06 | 0.000106 ± 1.3e-05 | 0.000179 ± 1.7e-05 | 3.14 ± 0.087
31 | G62C C68G | 1.08e-05 ± 2.7e-06 |  |  |  |  | < 1e-05 | 
32 | G62U C67U | < 1e-05 |  |  |  |  | < 1e-05 | 
33 | A64C U65A | 2.96e-05 ± 5.1e-06 | < 1e-05 | < 1e-05 |  |  |  | 
34 | U55C C68U | 3.04e-05 ± 1.7e-06 |  |  |  |  | 2.9e-05 ± 9.1e-06 | 
35 | G59U C71G | 1.13e-05 ± 1.7e-07 | < 1e-05 | < 1e-05 |  |  |  | 0.817 ± 0.071
